Measurements from paper PMC10138647.

Target: GST-cytPERK (cytosolic domain of PERK expressed as a GST fusion protein) (mouse)
Experiment: cross-linking; GST-cytPERK (1.3 µM) in solution, phosphate buffer pH 7.4, 2 mM MgCl2, 70 mM KCl, 1 mM DTT; 20 min at 27 °C with UDCA (50, 200, 1000 µM) or without, then 0.4 mM DSS for 30 min at 27 °C; quenched with Tris-HCl; 7% SDS-PAGE, blot with anti-PERK antibody; dimer relative to monomer by densitometry

stoichiometry N: 2
Substance: GST-cytPERK (cytosolic domain of PERK expressed as a GST fusion protein) (domain or fragment)
